Measured values reported in patent US20050119454A1.

Target: human long isoform dopamine D2 (D2DA) receptor (human), P14416
Assay: cell-based or functional assay

Chain of human long isoform dopamine D2 (D2DA) receptor (human), P14416 (P14416 whole entry, canonical isoform): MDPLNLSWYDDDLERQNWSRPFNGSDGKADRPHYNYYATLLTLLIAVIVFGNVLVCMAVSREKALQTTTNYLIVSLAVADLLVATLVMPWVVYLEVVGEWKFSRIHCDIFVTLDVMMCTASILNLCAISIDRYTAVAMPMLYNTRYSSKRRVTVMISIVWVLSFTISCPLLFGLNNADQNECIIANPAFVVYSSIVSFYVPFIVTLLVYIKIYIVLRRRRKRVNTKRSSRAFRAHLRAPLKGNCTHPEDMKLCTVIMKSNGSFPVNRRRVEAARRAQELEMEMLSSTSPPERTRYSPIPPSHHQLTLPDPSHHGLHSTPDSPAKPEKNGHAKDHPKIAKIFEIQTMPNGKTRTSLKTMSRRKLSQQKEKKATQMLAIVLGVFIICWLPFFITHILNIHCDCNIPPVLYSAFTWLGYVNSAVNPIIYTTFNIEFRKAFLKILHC

EAR response to dopamine, LtK system, paired one-tailed t-test | dopamine-induced EAR, CHO cells, paired one-tailed t-test | Binder | also measured
 |  | H-THQAFHYCNKQCLVI-OH (cysteine pairing not given here) | potentiation of the dopamine response (EAR), CHO system, paired one-tailed t-test: 1.31 t statistic; potentiation of the dopamine response (EAR), LtK system, paired one-tailed t-test: 0.62 t statistic
25.5 t statistic | 1.54 t statistic | ERNRKPLRPKNKYLI […] | 
69.8 t statistic | 1.28 t statistic | H-ERNRKPYRPKNKYLL-OH | 
 |  | H-SHQRWEYKGVNCIVY-OH | potentiation of the dopamine-induced increment in total milli-pH units (EAR), CHO system, paired one-tailed t-test: 28.1 t statistic; potentiation of the dopamine-induced increment in total milli-pH units (EAR), LtK system, paired one-tailed t-test: 13.3 t statistic
